From patent publication US20120263652A1 (UNIVERSITY OF MARYLAND COLLEGE PARK, published 2012) come the findings set out here.

Assay [1] deals with human ICAM-1 (native, expressed on human cells: HUVEC, Caco-2) (human) (UniProt P05362). In words: FITC IgG polystyrene carriers on fixed TNF-α-activated Caco-2 cells; fluorescence microscopy.
The target is the same in assay [2]. In words: competition: free non-specific IgG against FITC anti-ICAM carriers on Caco-2 cells; fluorescence microscopy.
In assay [3] the target is mouse ICAM-1 (native, expressed on mouse endothelial cells) (mouse) (UniProt P13597). Briefly: phage binding to H5V mouse endothelial cells; microscopy with fluorescent antibody to the phage capsid.
For assay [4], the target named is T1, human ICAM-1 (native, expressed on human cells: HUVEC, Caco-2) (human, UniProt P05362 28-532).
T1 construct: whole, on cells; also called intercellular adhesion molecule 1; native human ICAM-1
Briefly: competition: synthetic peptide against FITC anti-ICAM polystyrene nanocarriers on human endothelial cells; fluorescence microscopy. The source says:
(A) ELISA measurement of the binding of 7-mer peptide expressing phage library to immobilized recombinant ICAM-1 (consisting of the two most membrane-distal Ig domains −1 and 2- of mouse ICAM-1 fused to human Fc or hFc), versus their binding to control hFc. (B) Relative specificity and (C) relative affinity of ICAM-1-targeting peptide phages, determined by ELISA from the experiment in (A). (D) Relative binding of phages expressing 7-mer peptides to native ICAM-1 expressed on the surface of HV5 mouse endothelial cells, either control or activated with TNFalpha to mimic a disease phenotype. Binding was determined by microscopy using a fluorescently-labeled antibody to the phage capsid. The line in the graph indicates the level of binding of A1 phage to 293 cells, which are voided of ICAM-1-expression. […] (G) Binding of FITC-labeled anti-ICAM polystyrene nanocarriers to human endothelial cells was evaluated by fluorescence microscopy after incubation with cells in the absence (100% level) or presence of anti-ICAM antibody, ICAM-1-targeting synthetic peptides, or peptides with their scramble sequence (e.g., A1 sc).

Assay [5] deals with T2, mouse ICAM-1 chimera: the two most membrane-distal Ig domains (1 and 2) of mouse ICAM-1 fused to human Fc (mouse; human, UniProt P13597 28-214, limits assumed).
T2 construct: domain: the two most membrane-distal Ig domains -1 and 2-; also called mouse ICAM-1/Fc; mouse ICAM-1/hFc; not shown: human Fc (hFc)
Briefly: phage ELISA on immobilized mouse ICAM-1/hFc. The source says:
(§1) Example 5 details development of the 7-mer phage-display derived peptides against ICAM-1. These were identified and isolated from a random library by using a chimeric ICAM-1 protein consisting of the two most membrane-distal Ig domains of mouse ICAM-1 fused to human Fc (hFc). One round of negative selection against hFc, followed by three rounds of positive selection against mouse ICAM-1/hFc, rendered six phage clones (A1, B7, B8, B9, B10, and D6), which recognized immobilized mouse ICAM-1 (FIG. 5A).
(§2) (A) ELISA measurement of the binding of 7-mer peptide expressing phage library to immobilized recombinant ICAM-1 (consisting of the two most membrane-distal Ig domains −1 and 2- of mouse ICAM-1 fused to human Fc or hFc), versus their binding to control hFc. (B) Relative specificity and (C) relative affinity of ICAM-1-targeting peptide phages, determined by ELISA from the experiment in (A). (D) Relative binding of phages expressing 7-mer peptides to native ICAM-1 expressed on the surface of HV5 mouse endothelial cells, either control or activated with TNFalpha to mimic a disease phenotype. Binding was determined by microscopy using a fluorescently-labeled antibody to the phage capsid.
(An ELISA detects its analyte on a solid surface through an enzyme-linked reagent.)

The target of assay [6] is T2, mouse ICAM-1 chimera: the two most …. Briefly: phage ELISA, binding to mouse ICAM-1/hFc relative to control hFc.
Description: as §1, §2

The target is the same in assay [7]. In words: phage ELISA on immobilized mouse ICAM-1/hFc, relative to non-selected phages.
Description: as §1, §2

Assay [8] has the same target. Briefly: γ3 absorbed on 100 nm FITC polystyrene particles; nitrocellulose-immobilized ICAM-1/Fc vs albumin; fluorescence microscopy. The procedure: (A) The peptide γ3 was absorbed on the surface of 100 nm FITC-labeled polystyrene carriers and the resulting products were incubated for 15 min on nitrocellulose-immobilized albumin vs human or mouse ICAM-1 chimeras containing ICAM-1-Ig domains 1 and 2 fused to human Fc sequence. The membranes were washed and analyzed by fluorescence microscopy to quantify the number of carriers bound per area. Data are expressed relative to non-specific binding of γ3 carriers to albumin controls (dotted line). A comparison to binding of anti-ICAM carriers is provided (dashed line). (B) Binding of FITC-labeled polystyrene carriers coated by absorption with the peptide γ3 and recombinant acid sphingomyelinase (ASM, a therapeutic enzyme) to activated HUVEC (bars) vs ICAM-1-negative 293 cells (dotted line) was quantified by fluorescence microscopy after 1 h incubation at 37° C., in the absence or presence of excess γ3, anti-ICAM, γ3 scramble peptide, or mannose 6 phosphate (M6P). […] (C) HUVEC lysosomes were labeled for 2 h with Texas-red dextran at 37° C. […] Co-localization of FITC carriers with Texas-red dextran-lysosomes was quantified by fluorescence microscopy. […] Co-localization of FITC 2γ3 carriers with Texas red dextran-labeled lysosomes was assessed by microscopy 3 h post-internalization. […]

Assay [9] has as its target T1, human ICAM-1 (native, expressed on …). Briefly: 100 nm FITC polystyrene carriers coated with peptide on endothelial cells; fluorescence microscopy.

T1 sequence (P05362 28-532): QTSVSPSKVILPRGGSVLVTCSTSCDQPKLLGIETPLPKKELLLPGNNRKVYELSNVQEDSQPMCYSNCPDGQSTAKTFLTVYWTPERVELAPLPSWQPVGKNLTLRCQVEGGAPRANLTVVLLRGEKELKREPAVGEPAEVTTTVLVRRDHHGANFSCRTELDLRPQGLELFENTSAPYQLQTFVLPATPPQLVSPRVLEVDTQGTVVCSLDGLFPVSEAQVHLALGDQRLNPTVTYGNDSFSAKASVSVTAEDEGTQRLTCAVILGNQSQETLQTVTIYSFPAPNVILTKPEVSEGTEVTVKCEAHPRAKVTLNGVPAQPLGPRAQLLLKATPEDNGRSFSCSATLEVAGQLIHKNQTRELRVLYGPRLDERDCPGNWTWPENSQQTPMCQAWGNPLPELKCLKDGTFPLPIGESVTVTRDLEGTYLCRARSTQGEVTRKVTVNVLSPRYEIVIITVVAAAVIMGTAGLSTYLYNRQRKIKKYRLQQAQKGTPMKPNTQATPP
T2 sequence (P13597 28-214 limits assumed, stated change not applied): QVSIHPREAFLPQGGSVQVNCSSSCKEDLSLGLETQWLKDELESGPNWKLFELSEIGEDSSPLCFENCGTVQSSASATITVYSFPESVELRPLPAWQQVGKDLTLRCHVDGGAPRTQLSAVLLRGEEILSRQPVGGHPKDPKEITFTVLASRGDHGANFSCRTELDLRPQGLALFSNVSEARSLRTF
Chain of human ICAM-1 (native, expressed on human cells: HUVEC, Caco-2) (human) (P05362 28-532): as the sequence (P05362 28-532) above

Regarding non-specific IgG (control) (antibody), the carriers/cell (carriers/cell) in [1] came to 1.3. The carrier binding, % of the control value with no competitor in assay [2] was 102 % of control.
Turning to GCKLCAQ [D6 peptide (phage display-derived 7-mer)], the affinity, % of A1 in assay [3] was 92.9 % of A1.

B1: B8 peptide (phage display-derived 7-mer) (peptide)
peptide: GSLLSAA
notes: Tested as a phage clone and as a synthetic peptide; The assay field says which; also called B8 clone
In the case of B1, in assay [4], the binding result was “binds”.

B2: B9 peptide (phage display-derived 7-mer) (peptide)
peptide: FSPHSRT
notes: Tested as a phage clone and as a synthetic peptide; The assay field says which; also called B9 clone
Turning to B2, the binding result in assay [5] is listed as “binds”. The affinity, % of A1 in assay [3] was 72.3 % of A1.

B3: A1 peptide (phage display-derived 7-mer) (peptide)
peptide: YPASYQR
notes: Tested as a phage clone (5 copies of the peptide on the capsid; coat protein fusion not described) and as a peptide synthesized in vitro; The assay field says which; also called A1 clone; clone A1 phages
In the case of B3, the “specificity vs hFc” value in assay [6] was around 5.1 fold. In [7], the “affinity, fold over non-selected phages” value is around 4.7 fold.

B4: γ3 peptide (17 amino acid peptide derived from the γ chain of fibrinogen) (peptide)
peptide: NNQKIVNLKEKVAQLEA
notes: Synthetic peptide; Tested mostly absorbed on 100 nm FITC polystyrene carriers, in some assays together with recombinant acid sphingomyelinase (ASM); also called γ3 carriers; γ3/ASM carriers
Take B4: the binding result in [8] was “binds”.

B5: 2γ3 peptide (peptide)
peptide: NNQKIVNIKEKVAQIEA
notes: Derivative of γ3, tested absorbed on polystyrene or PLGA carriers; also called 2γ3 carriers; 2γ3/ASM carriers
Take B5: in [9], the binding result is given as “binds”.

B6: 3γ3 peptide (peptide)
peptide: NNQKLVNIKEKVAQIEA
notes: Derivative of γ3, tested absorbed on polystyrene carriers; also called 3γ3 carriers; 3γ3/ASM carriers
With B6, the binding result in assay [9] is recorded as “binds”.
